The results in this text go back to FireProtDB (doi:10.1111/j.1432-1033.1991.tb16033.x).

To fix the notation:
B1: Ribonuclease HI, P0A7Y4 (parent)
chain: MLKQVEIFTDGSCLGNPGPGGYGAILRYRGREKTFSAGYTRTTNNRMELMAAIVALEALKEHCEVILSTDSQYVRQGITQWIHNWKKRGWKTADKKPVKNVDLWQRLDAALGQHQIKWEWVKGHAGHPENERCDELARAAAMNPTLEDTGYQVEV

Variants of B1 are the subject of this data set. Conditions: Escherichia coli (strain K12); pH 5.5; 25 °C; GdnHCl; Fluorescence; Sodium acetate 20 mM; NaCl 0.1 M; reversible: yes; structure 2RN2; whole UniProt chain shown.

H127A: the “ddG of mutation (higher = less stable)” value was found to be 0.58 kcal/mol, the denaturant m value was 4.98 kcal/mol/M, the “denaturant midpoint (higher = more stable)” value (from here on “denaturant midpoint”) worked out at 1.74 M and the unfolding free energy was 8.68 kcal/mol.

Turning to H124A, the “ddG of mutation (higher = less stable)” value is -0.48 kcal/mol, the denaturant m value came to 5.36 kcal/mol/M, the “denaturant midpoint” value stood at 1.82 M and the unfolding free energy was found to be 9.74 kcal/mol.

Regarding H62A, the “ddG of mutation (higher = less stable)” value was -0.38 kcal/mol, the denaturant m value was 5.19 kcal/mol/M, the “denaturant midpoint” value was determined as 1.86 M and the unfolding free energy came to 9.64 kcal/mol.

For H114A, the “ddG of mutation (higher = less stable)” value worked out at 2.63 kcal/mol, the denaturant m value worked out at 4.23 kcal/mol/M, the “denaturant midpoint” value turned out to be 1.57 M and the unfolding free energy was 6.63 kcal/mol.
